60 variants from the Human Domainome abundance scans (Beltran et al. 2025) can be followed below.

± gives the uncertainty stated by the source.

Sequences and labels used below:
B1: Cullin-9, residues 2234 to 2275; numbered along this chain, Q8IWT3 (parent)
chain: KRCPSCQAPIEKNEGCLHMTCAKCNHGFCWRCLKSWKPNHKD

Variants of B1 are the subject of this series. The series is described as follows: abundance fitness (aPCA) (normalised: wild type 0, dead -1); higher = more abundant; growth selection in yeast, the domain comes from the species named. As to conditions: Homo sapiens.
On to KRCPSCQAPIEKNEGCLHMTCAKCNHGFCWRCLKSWKPNHCD [K41C], for which the abundance fitness came out at 0.578 ± 0.28. To KRCPSCQAPIEHNEGCLHMTCAKCNHGFCWRCLKSWKPNHKD [K12H] belongs -0.151 ± 0.2.

On to KRCPSCQAPIEFNEGCLHMTCAKCNHGFCWRCLKSWKPNHKD [K12F], for which the abundance fitness was -0.469 ± 0.38. To KRCPSCQAPIEQNEGCLHMTCAKCNHGFCWRCLKSWKPNHKD [K12Q] belongs 0.008 ± 0.091; to KRCPSCQAPIEKNEGCLHMECAKCNHGFCWRCLKSWKPNHKD [T20E], -0.306 ± 0.11; to KRCPSCQAPIEKNEGCLHMTCAKCNHGFCWRCLKSWEPNHKD [K37E], 0.219 ± 0.089. In the case of KRCPSCQAPIEKNEGCLHMTCAKCNHGFCWRCLKSWTPNHKD [K37T], the abundance fitness stood at 0.117 ± 0.1. The result for KRCPSCQAPIEKNEGCLHMTCAKCNHGFCWRCLKSWMPNHKD [K37M] reads -0.261 ± 0.12. For the variant KRCPSCQAPIEKNEGCLHMTCAKCNHGFCWRCLKSWVPNHKD [K37V], the abundance fitness came to 0.078 ± 0.087. Take KRCPSCQAPIEKNEGCLHMTCAKCNHGFCWRCLKSWYPNHKD [K37Y]: the abundance fitness is -0.059 ± 0.15. In the case of KRCPSCQAPIEKNEGCLHMTCAKCNHGFCWRCLKSWDPNHKD [K37D], the abundance fitness was found to be 0.323 ± 0.11.

As for KRCPSCQAPIEKNEGCLHMTCAKCNHGFCWRCLKSWKPNFKD [H40F], the abundance fitness is -0.089 ± 0.35. Take KRCPSCQAPIEKNEGCLHMTCAKCNHGFCWRCLKSWKPNRKD [H40R]: the abundance fitness was -0.283 ± 0.087.

As for KRCPSCQAPIEKNEGCLHMTCAKCNHGFCWRCLKSWKPNYKD [H40Y], the abundance fitness was -0.451 ± 0.32. As to KRCPSCQAPIEKNEGCLHMTCAKCNHGFCWRCLKSWKPNQKD [H40Q], the abundance fitness was -0.123 ± 0.14.

Turning to KRCPSCQAPIEKNEGCLHMTCAKCNHGFCWRCLKSWKPNKKD [H40K], the abundance fitness was -0.319 ± 0.15.

On to KRCPSCQAPIEKNEGCLHMTCAKCNHGFCWRCLKSWKPNMKD [H40M], for which the abundance fitness was 0.13 ± 0.1. In the case of KRCPSCQAPIEKNEGKLHMTCAKCNHGFCWRCLKSWKPNHKD [C16K], the abundance fitness came to 0.324 ± 0.099.

KRCPSCQAPIEKNEGELHMTCAKCNHGFCWRCLKSWKPNHKD [C16E]: the abundance fitness was determined as 0.507 ± 0.082. As to KRCPSCQAPIEKNEGHLHMTCAKCNHGFCWRCLKSWKPNHKD [C16H], the abundance fitness amounted to 0.105 ± 0.14. KRCPSCQAPIEKNEGTLHMTCAKCNHGFCWRCLKSWKPNHKD [C16T]: the abundance fitness amounted to 0.471 ± 0.11.

KRCPSCQAPIEKNEGCLHMTCAKRNHGFCWRCLKSWKPNHKD [C24R]: the abundance fitness was -0.594 ± 0.086.

In the case of KRCPSCQAPIEKNEGCLHMTCAKWNHGFCWRCLKSWKPNHKD [C24W], the abundance fitness is -0.784 ± 0.11. As for KRCPSCQAAIEKNEGCLHMTCAKCNHGFCWRCLKSWKPNHKD [P9A], the abundance fitness was -0.198 ± 0.09. On to KRCPSCQAPIEKNEGCLHMTCAKCNHGFCHRCLKSWKPNHKD [W30H], for which the abundance fitness was -0.069 ± 0.21. On to KRCPSCQAPIEKNEGCLHMTCAKCNHGFCERCLKSWKPNHKD [W30E], for which the abundance fitness turned out to be 0.016 ± 0.11. Regarding KRCPSCQAPIEKNEGCLHMTCAKCNHGFCMRCLKSWKPNHKD [W30M], the abundance fitness is -0.223 ± 0.12. With KRCPSCQAPIEKNEGCLHMTCAKCNHGFCWRCHKSWKPNHKD [L33H], the abundance fitness is -0.321 ± 0.2. As for KRCPSCQAPIEKNEGCLHMTCAKCNHGFCWRCRKSWKPNHKD [L33R], the abundance fitness was -0.418 ± 0.079. As to KRCPSCQAPIEKNEGCLHMTCAKCNHGFCWRCWKSWKPNHKD [L33W], the abundance fitness is -0.48 ± 0.12. To KRCPSCQCPIEKNEGCLHMTCAKCNHGFCWRCLKSWKPNHKD [A8C] belongs -0.213 ± 0.12; to KRCPSCQAPIEKNEGCLHMTCAKCNHGFCWRCLKSWKPNHKP [D42P], -0.158 ± 0.19.

Take KRCPSCQAPIEKNEGCLHMTCAKCNHGFCWRCLKSWKPNHKV [D42V]: the abundance fitness is -0.359 ± 0.16. Turning to KRCPSCQAPIEKNEGCLHMTCAKCNHGFCWRCLKSWKPNHKG [D42G], the abundance fitness was -0.21 ± 0.11. In the case of KRCPSCQAPIEKNEGCLHMTCAKCNHGQCWRCLKSWKPNHKD [F28Q], the abundance fitness worked out at 0.084 ± 0.11.

Consider KRCPSCQAPIEKNEGCDHMTCAKCNHGFCWRCLKSWKPNHKD [L17D], for which the abundance fitness was -0.006 ± 0.14. Take KRCPSCQAPIEKNEGCKHMTCAKCNHGFCWRCLKSWKPNHKD [L17K]: the abundance fitness is -0.862 ± 0.17. Take KRCPSCQAPIEKNEGCMHMTCAKCNHGFCWRCLKSWKPNHKD [L17M]: the abundance fitness was -0.071 ± 0.13. The result for KRCPSCQAPIEKNEGCLHMTCAKCNHGFCWRCLKSCKPNHKD [W36C] reads -0.391 ± 0.18. For KRCPSCQAPIEKNEGCLHMTCAKCNHGFCWRCLKSPKPNHKD [W36P], the abundance fitness stood at 0.067 ± 0.12. For the variant KRCPSCQAPIEKNEGCLHMTCAKCNHGFCWRCLKSLKPNHKD [W36L], the abundance fitness was 0.205 ± 0.093. The result for KRCPSCQAPIEKNEGCLHMTCAKCNHGFCWRCLKSGKPNHKD [W36G] reads -0.026 ± 0.072; that for KRCPSCQAPIEKNEGCLEMTCAKCNHGFCWRCLKSWKPNHKD [H18E], 0.019 ± 0.094; that for KRCPSCQAPIEKNEGCLMMTCAKCNHGFCWRCLKSWKPNHKD [H18M], 0.154 ± 0.1.

Consider KRCPSCQAPIEKNEGCLQMTCAKCNHGFCWRCLKSWKPNHKD [H18Q], for which the abundance fitness is 0.106 ± 0.1. To KRCPSCQAPIEKNEGCLFMTCAKCNHGFCWRCLKSWKPNHKD [H18F] belongs -0.058 ± 0.29; to KRCPSCQAPIEKNEGCLHMTCAKCNHGFCWRCLKQWKPNHKD [S35Q], 0.068 ± 0.12. With KRCPSCQAPIEKNEGCLHMTCAKCNHGFCWRCLKKWKPNHKD [S35K], the abundance fitness was -0.155 ± 0.12. Take KRCPSCQAPIEKNEGCLHMTCAKCNHGFCWRCLKTWKPNHKD [S35T]: the abundance fitness is 0.044 ± 0.17. To KRCPSCQAPIEKNEGCLHMTCAKCNHGFCWRCLKEWKPNHKD [S35E] belongs 0.17 ± 0.084.

Turning to KRCPSCQAPIEKNEGCLHMTCAKCNHGFCWRCLKDWKPNHKD [S35D], the abundance fitness was 0.003 ± 0.2.

For KRCPSCQAPIEKNEGCLHMTCAKCWHGFCWRCLKSWKPNHKD [N25W], the abundance fitness is -0.44 ± 0.12. For KRCPSCQAPIEKNEQCLHMTCAKCNHGFCWRCLKSWKPNHKD [G15Q], the abundance fitness was -0.777 ± 0.21.

As to KRCPSCQAPIEKNESCLHMTCAKCNHGFCWRCLKSWKPNHKD [G15S], the abundance fitness is -0.362 ± 0.11. Consider KRCPSCQAPIEKNEWCLHMTCAKCNHGFCWRCLKSWKPNHKD [G15W], for which the abundance fitness was -0.176 ± 0.1.

KREPSCQAPIEKNEGCLHMTCAKCNHGFCWRCLKSWKPNHKD [C3E]: the abundance fitness was -0.474 ± 0.17. For KRYPSCQAPIEKNEGCLHMTCAKCNHGFCWRCLKSWKPNHKD [C3Y], the abundance fitness was -0.342 ± 0.16. The result for KRTPSCQAPIEKNEGCLHMTCAKCNHGFCWRCLKSWKPNHKD [C3T] reads -0.435 ± 0.15. As to KRSPSCQAPIEKNEGCLHMTCAKCNHGFCWRCLKSWKPNHKD [C3S], the abundance fitness was -0.303 ± 0.092. Consider KRCPSCQAPIEKNPGCLHMTCAKCNHGFCWRCLKSWKPNHKD [E14P], for which the abundance fitness was -0.011 ± 0.16.
